# Test results: article PMC11647477, “Biochemical and genomic evidence for converging metabolic routes of metformin and biguanide breakdown in environmental Pseudomonads” (The Journal of Biological Chemistry, 2024)
# B1: BguH (Pseudomonas sp. KHPS1) (protein)
# chain: MSERNHEKGMLLAIEQALKAVASGEPPFGVVILDAQGELVAATHDEVNTRGDMSAHAETLAVRAACQVRGPSLEGCFLYTTCEPCPMCFTTAWLARIGGVVYATTMDEVHKILGDAQRELRVPVTQMNDLSGEPVTLVKGVLRDRCLQLFREHAATLATTK
# notes: N-terminal His6 tag (pET28b), E. coli codon-optimised synthetic gene, E. coli BL21(DE3)-RIPL host
# Substrate: N=C(N)NC(=N)N
# Assay: purified protein
# Assay type: biochemical, Pseudomonas sp. KHPS1
# Settings: 100 mM potassium phosphate, pH 8.0, 25 °C, 0.5 mM NADH, 0.5 mM 2-oxoglutarate, 1.5 U GDH
protein,measurement,value
B1,Km,620 ± 160 µM
same,kcat,8.1 ± 0.8 s⁻¹
